The source of these data is patent US20230322958A1 (Genentech, published 2023).

Sequences and labels used below:
T1: huNotch2-EGF6-10 (human, UniProt Q04721 219-418)
T1 construct: also called human Notch2 EGF6-10
T1 sequence: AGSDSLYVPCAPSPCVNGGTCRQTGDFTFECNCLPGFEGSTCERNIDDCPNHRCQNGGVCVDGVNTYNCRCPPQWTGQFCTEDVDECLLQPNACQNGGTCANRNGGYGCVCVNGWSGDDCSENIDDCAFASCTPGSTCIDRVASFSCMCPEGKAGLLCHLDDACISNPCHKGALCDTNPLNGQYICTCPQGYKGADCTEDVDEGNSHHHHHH

B1: hu1B2.L7H10 (antibody, V domains shown)
VH: EVQLVESGGGLVQPGGSLKLSCAVSGFTFSDFYMEWVRQASGKGLEWVAASRNKANDFSIVYSASVKDRFTISRDDSKSTAYLQMNSLKTEDTAVYYCSRDSGRWGLDAWGQGTLVTVSS
VL: DIQMTQSPSSVSASVGDRVTITCQTSEDIYSGLAWYQQKPGKSPKLLIYGASRLQDGVPSRFSGSGSGTDYTLTISSLQPEDFATYYCQQGFKYPLTFGGGTKVEIK
notes: Human IgG1 backbone
B2: hu1B2.L7H14 (antibody, V domains shown)
VH: B1 VH with A81L
VL: B1 VL
notes: Human IgG1 backbone; also called hu.1B2.DFS.H14L7
B3: 1B2.v104.huFab.LC_K149C.dPEG6_dimer (other)
heavy: EVQLVESGGGLVQPGGSLKLSCAVSGFTFSDFYMEWVRQASGKGLEWVAAQRNKANDFSIVYSASVKDRFTISRDDSKSTLYLQMNSLKTEDTAVYYCSRDGGKLALDAWGQGTLVTVSSASTKGPSVFPLAPSSKSTSGGTAALGCLVKDYFPEPVTVSWNSGALTSGVHTFPAVLQSSGLYSLSSVVTVPSSSLGTQTYICNVNHKPSNTKVDKKVEPKSCD
light: DIQMTQSPSSVSASVGDRVTITCQTSEDIYSGLAWYQQKPGKSPKLLIYGASRLQDGVPSRFSGSGSGTDYTLTISSLQPEDFATYYCQQGFKYPLTFGGGTKVEIKRTVAAPSVFIFPPSDEQLKSGTASVVCLLNNFYPREAKVQWCVDNALQSGNSQESVTEQDSKDSTYSLSSTLTLSKADYEKHKVYACEVTHQGLSSPVTKSFNRGEC
modifications: engineered Cys (K149C) joined through maleimide to Bis-Mal-PEG6
B4: 1B2.v104.huFab.LC_K149C.dPEG11_dimer (other)
heavy: B3 heavy
light: B3 light
modifications: engineered Cys (K149C) joined through maleimide to Bis-Mal-PEG11
B5: 1B2.v104.huFab.LC_K149C (Fab, V domains shown)
VH: B1 VH with S51Q, A81L, S102G, R104K, W105L, G106A
VL: DIQMTQSPSSVSASVGDRVTITCQTSEDIYSGLAWYQQKPGKSPKLLIYGASRLQDGVPSRFSGSGSGTDYTLTISSLQPEDFATYYCQQGFKYPLTFGGGTKVEIKR
B6: hu.3107.L6H12 (antibody, V domains shown)
VH: EVQLVQSGAEVKKPGASVKVSCKASGYTFSNYVIHWVRQAPGQGPEWTGYIIPGSGGTKFNEKFKGRATSTVDTSSTTAYMELSRLRSDDTVVYYCARDGAGSFTYWGQGTLVTVSS
VL: DVVMTQSPDSLAVSLGERATINCRSSQSLVHSDGNTYLHWFQQKPGQPPKLLIYRISNRFSGVPDRFSGSGSGTDFTLTISSLQAEDVAVYYCLQSTHFPDTFGGGTKVEIK
notes: also called hu.Notch-3107.L6H12
B7: hu.3107.L7H13 (antibody, V domains shown)
VH: B6 VH with S76I
VL: B6 VL with V2I, F41Y
notes: also called hu.Notch-3107.L7H13
B8: hu.3107.L7H12 (antibody, V domains shown)
VH: B6 VH
VL: B6 VL with V2I, F41Y
notes: also called hu.Notch-3107.L7H12
B9: hu.3107.L6H13 (antibody, V domains shown)
VH: B6 VH with S76I
VL: B6 VL
notes: also called hu.Notch-3107.L6H13
B10: hu.3107.L1H14 (antibody, V domains shown)
VH: EVQLVQSGAEVKKPGESLKISCKGSGYTFSNYVIHWVRQMPGKGPEWTGYIIPGSGGTKFNEKFKGQATISVDKSSTTAYLQWSSLKASDTAMYYCARDGAGSFTYWGQGTLVTVSS
VL: DVVMTQSPLSLPVTLGQPASISCRSSQSLVHSDGNTYLHWFQQRPGQSPRLLIYRISNRFSGVPDRFSGSGSGTDFTLKISRVEAEDVGVYYCLQSTHFPDTFGGGTKVEIK
notes: also called hu.Notch-3107.L1H14
B11: hu.3107.L6H14 (antibody, V domains shown)
VH: B10 VH
VL: B6 VL
notes: also called hu.Notch-3107.L6H14
B12: hu.3107.L1H12 (antibody, V domains shown)
VH: B6 VH
VL: B10 VL
notes: also called hu.Notch-3107.L1H12
B13: hu.3107.L1H13 (antibody, V domains shown)
VH: B6 VH with S76I
VL: B10 VL
notes: also called hu.Notch-3107.L1H13
B14: hu.3107.L7H15 (antibody, V domains shown)
VH: B10 VH with S76I
VL: B6 VL with V2I, F41Y
notes: also called hu.Notch-3107.L7H15
B15: hu.3107.L7H14 (antibody, V domains shown)
VH: B10 VH
VL: B6 VL with V2I, F41Y
notes: also called hu.Notch-3107.L7H14
B16: hu.3107.L1H15 (antibody, V domains shown)
VH: B10 VH with S76I
VL: B10 VL
notes: also called hu.Notch-3107.L1H15
B17: hu.3107.L6H15 (antibody, V domains shown)
VH: B10 VH with S76I
VL: B6 VL
notes: also called hu.Notch-3107.L6H15

Where a chain is given by its changes, count along the chain named. Numbers in names are those of the source.

One assay addresses T1, huNotch2-EGF6-10. The assay is described as follows: SPR BIAcore T200, antibody captured on protein A, 37 C. How it is done: (§1) The binding affinities of the antibodies was determined by BIAcore™ T200 machine. Rabbit antibodies were expressed as chimeric antibodies with rabbit variable domains and human constant domains. Rat antibodies were expressed as chimeric antibodies with rat variable domains and human constant regions. Humanized antibodies were expressed in the human IgG1 backbone. For kinetics measurements, antibodies were captured on research grade protein A chip (GE Healthcare) to achieve approximately 300 RU. Ten-fold serial dilutions of huNotch2-EGF6-10 were injected in HBS-P buffer with additional 3 mM CaCl₂ at 37° C. with a flow rate of 100 μL/min. Association rates (ka) and dissociation rates (kd) were calculated using a 1:1 Langmuir binding model (BIAcore™ T200 Evaluation Software version 2.0). The equilibrium dissociation constant (KD) was calculated as the ratio kd/ka.
(SPR reads the build-up and loss of mass on a sensor chip optically.)
Consider B1, for which binding was characterised by a dissociation constant (Kd) of 9.94 nM, the koff (usually a measure of how fast the partners let go of each other) worked out at 0.00415 s⁻¹ and the kon (commonly the rate constant with which the complex forms) is 418000 M⁻¹ s⁻¹.

Consider B2, for which the Kd (commonly a measure of binding affinity in units of concentration) is 6.13 nM, the dissociation rate constant (koff) worked out at 0.00134 s⁻¹ and the on-rate (kon) worked out at 219000 M⁻¹ s⁻¹.

In a further assay the target is T2, human Notch2 on U-87 MG cells (human, UniProt Q04721 26-2471). The assay is described as follows: cell-based or functional assay.
T2 sequence (Q04721 26-2471): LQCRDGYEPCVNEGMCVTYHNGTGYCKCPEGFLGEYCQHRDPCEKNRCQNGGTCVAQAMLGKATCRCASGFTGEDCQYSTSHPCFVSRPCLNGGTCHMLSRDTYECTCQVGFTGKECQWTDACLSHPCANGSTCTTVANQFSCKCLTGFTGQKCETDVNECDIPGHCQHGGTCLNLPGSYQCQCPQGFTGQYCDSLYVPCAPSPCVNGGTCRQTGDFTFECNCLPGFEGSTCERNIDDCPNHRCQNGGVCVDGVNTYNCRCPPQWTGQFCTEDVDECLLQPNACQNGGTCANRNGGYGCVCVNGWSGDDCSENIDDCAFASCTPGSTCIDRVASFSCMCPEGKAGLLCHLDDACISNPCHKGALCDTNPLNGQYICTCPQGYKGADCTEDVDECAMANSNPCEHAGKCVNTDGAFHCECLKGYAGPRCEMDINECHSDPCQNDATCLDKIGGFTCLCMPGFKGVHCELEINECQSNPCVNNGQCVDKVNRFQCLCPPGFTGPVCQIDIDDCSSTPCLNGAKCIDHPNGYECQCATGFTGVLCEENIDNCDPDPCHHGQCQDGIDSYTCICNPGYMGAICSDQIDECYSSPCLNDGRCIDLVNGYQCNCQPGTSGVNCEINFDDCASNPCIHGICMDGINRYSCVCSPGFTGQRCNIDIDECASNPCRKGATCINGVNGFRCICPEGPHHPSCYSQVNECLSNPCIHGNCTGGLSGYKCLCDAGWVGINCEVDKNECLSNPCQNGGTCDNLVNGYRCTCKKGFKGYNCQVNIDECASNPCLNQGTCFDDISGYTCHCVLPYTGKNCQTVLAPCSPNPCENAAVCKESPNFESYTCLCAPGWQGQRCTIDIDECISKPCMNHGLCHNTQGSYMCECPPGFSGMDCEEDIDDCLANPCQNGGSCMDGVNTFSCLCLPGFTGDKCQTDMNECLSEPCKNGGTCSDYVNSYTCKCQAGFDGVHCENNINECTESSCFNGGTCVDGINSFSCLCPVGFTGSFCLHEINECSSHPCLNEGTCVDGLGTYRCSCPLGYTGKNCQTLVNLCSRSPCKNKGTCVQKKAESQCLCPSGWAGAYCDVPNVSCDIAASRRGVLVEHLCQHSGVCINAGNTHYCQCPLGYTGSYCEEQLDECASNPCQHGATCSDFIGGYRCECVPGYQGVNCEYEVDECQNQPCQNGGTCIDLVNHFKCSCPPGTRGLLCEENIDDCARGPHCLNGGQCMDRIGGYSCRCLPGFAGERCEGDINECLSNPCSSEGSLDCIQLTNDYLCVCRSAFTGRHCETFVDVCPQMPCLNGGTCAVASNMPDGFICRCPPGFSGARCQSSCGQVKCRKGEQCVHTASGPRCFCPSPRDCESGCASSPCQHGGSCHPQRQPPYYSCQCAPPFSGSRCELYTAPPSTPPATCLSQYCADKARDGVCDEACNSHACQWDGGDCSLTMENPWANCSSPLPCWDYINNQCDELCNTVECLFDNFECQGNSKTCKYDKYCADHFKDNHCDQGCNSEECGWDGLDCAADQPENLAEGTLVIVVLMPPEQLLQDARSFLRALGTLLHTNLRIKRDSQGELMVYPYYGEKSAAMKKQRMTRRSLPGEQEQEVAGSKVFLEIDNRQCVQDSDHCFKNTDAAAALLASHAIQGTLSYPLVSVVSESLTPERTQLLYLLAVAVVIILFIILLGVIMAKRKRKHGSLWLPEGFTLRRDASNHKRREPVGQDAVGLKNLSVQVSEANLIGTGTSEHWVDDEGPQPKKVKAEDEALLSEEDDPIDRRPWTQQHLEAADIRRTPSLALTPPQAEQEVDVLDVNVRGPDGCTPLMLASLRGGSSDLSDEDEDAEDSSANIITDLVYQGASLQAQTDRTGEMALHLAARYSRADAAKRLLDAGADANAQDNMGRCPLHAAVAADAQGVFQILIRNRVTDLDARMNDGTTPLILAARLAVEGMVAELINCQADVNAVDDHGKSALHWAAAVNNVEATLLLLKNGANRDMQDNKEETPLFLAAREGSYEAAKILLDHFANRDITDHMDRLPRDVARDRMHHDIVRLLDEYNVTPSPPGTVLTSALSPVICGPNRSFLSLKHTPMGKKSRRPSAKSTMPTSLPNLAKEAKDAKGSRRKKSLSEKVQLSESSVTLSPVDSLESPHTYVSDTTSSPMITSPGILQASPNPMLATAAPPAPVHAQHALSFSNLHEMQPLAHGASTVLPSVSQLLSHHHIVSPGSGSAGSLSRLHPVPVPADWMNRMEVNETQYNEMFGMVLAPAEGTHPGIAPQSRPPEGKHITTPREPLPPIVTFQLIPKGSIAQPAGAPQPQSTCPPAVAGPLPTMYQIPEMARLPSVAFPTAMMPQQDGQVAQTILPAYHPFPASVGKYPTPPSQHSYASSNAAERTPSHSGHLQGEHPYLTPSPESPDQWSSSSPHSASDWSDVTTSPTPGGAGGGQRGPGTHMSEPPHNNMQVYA
B3: the “DLL Inhibition (IC50)” value is greater than 1000 nM.

Turning to B4, the “DLL Inhibition (IC50)” value was greater than 1000 nM.

Consider B5, for which the “DLL Inhibition (IC50)” value came out at 50 nM and the “Jag1 Inhibition (IC50)” value was found to be 120 nM.

The next assay concerns the target T1, huNotch2-EGF6-10. The assay is described as follows: SPR BIAcore, separate experiment, substantially as for Table 4. As to the method:
as §1
In a separate experiment, the binding affinities of the humanized versions of the rat 3107 antibody were determined, substantially as described above.
As for B6, the affinity, expressed as Kd, was 9.79 nM; the koff was 0.00404 s⁻¹; the kon stood at 413000 M⁻¹ s⁻¹.

B7 gave a Kd of 9.94 nM, a dissociation rate constant (koff) of 0.00353 s⁻¹ and an association rate constant (kon) of 355000 M⁻¹ s⁻¹.

Consider B8, for which binding was characterised by a dissociation constant (Kd) of 9.54 nM, the koff was determined as 0.00367 s⁻¹ and the on-rate constant (kon) worked out at 384000 M⁻¹ s⁻¹.

B9 had a Kd of 9.47 nM, an off-rate (koff) of 0.00424 s⁻¹ and a kon of 448000 M⁻¹ s⁻¹.

On to B10, for which binding was characterised by a dissociation constant (Kd) of 17.5 nM, the koff turned out to be 0.00631 s⁻¹ and the kon was 360000 M⁻¹ s⁻¹.

As for B11, the dissociation constant Kd was found to be 10 nM, the koff amounted to 0.00354 s⁻¹ and the kon was found to be 354000 M⁻¹ s⁻¹.

In turn, B12 returned an equilibrium dissociation constant (Kd) of 14.3 nM, a koff of 0.00542 s⁻¹ and a kon of 380000 M⁻¹ s⁻¹.

For B13, binding was characterised by a dissociation constant (Kd) of 15.5 nM, the off-rate (koff) is 0.00587 s⁻¹ and the on-rate (kon) was 379000 M⁻¹ s⁻¹.

B14 yielded a Kd of 11.6 nM, an off-rate constant (koff) of 0.00407 s⁻¹ and a kon of 350000 M⁻¹ s⁻¹.

Turning to B15, binding was characterised by a dissociation constant (Kd) of 10.4 nM, the koff was found to be 0.00359 s⁻¹ and the association rate constant (kon) is 346000 M⁻¹ s⁻¹.

For the molecule B16, the Kd came out at 17.9 nM, the koff worked out at 0.00634 s⁻¹ and the kon was determined as 355000 M⁻¹ s⁻¹.

B17 yielded a dissociation constant Kd of 9.23 nM, an off-rate constant (koff) of 0.00365 s⁻¹ and an on-rate constant (kon) of 396000 M⁻¹ s⁻¹.

The target in another assay is T2, human Notch2 on U-87 MG cells. The assay is described as follows: cell-based or functional assay. This is another data set of the same source.
B6: the “Jagged1 IC50” value is 4.71 nM.

B7: the “Jagged1 IC50” value is 5.94 nM.

Take B8: the “Jagged1 IC50” value was 11 nM.

Regarding B9, the “Jagged1 IC50” value came to 6.42 nM.

On to B10, for which the “Jagged1 IC50” value stood at 6.95 nM.

B11: the “Jagged1 IC50” value was 6.65 nM.

With B12, the “Jagged1 IC50” value came to 7.85 nM.

As for B13, the “Jagged1 IC50” value turned out to be 4.92 nM.

Regarding B14, the “Jagged1 IC50” value was 9.16 nM.

For the molecule B15, the “Jagged1 IC50” value was 10.5 nM.

Regarding B16, the “Jagged1 IC50” value was found to be 6.08 nM.

As for B17, the “Jagged1 IC50” value is 8.03 nM.
